{"source": "paper PMC10709618", "about": "“Ag nanorod@PEI-Ag nanohybrid as an excellent signal label for sensitive and rapid detection of serum HER2”", "binders": {"B1": {"name": "HER2 aptamer (ssDNA)", "DNA": "GGGCCGTCGAACACGAGCATGGTGCGTGGACCTAGGATGACCTGAGTACTGTCC", "modifications": "5'-thiol (SH)"}}, "molecular_target": "HER2 (GST-tagged, human) (human, UniProt P04626 676-1255)", "assay": "electrochemical aptasensor (cyclic voltammetry); Ag NR@PEI-Ag nanohybrid label cast after HER2; LOD 10 pg (not a Kd); Aptamer 0.25 uM loaded on Au electrode; HER2 cast and dried under infrared lamp, PBS wash; CV in 0.1 M PBS pH 7, 100 mV/s; temperature not stated", "settings": "protein: commercial; tags: GST"}
{"binder": "B1", "values": [{"measurement": "binding result", "result": "binds"}]}
